Here are results for 29 proteins from patent publication US20210230570.

B1: FIXa-K228N/K247N/N249S/R318Y/R338E/T343R/R403E/E410N (protein)
chain 1: YNSGKLEEFVQGNLERECMEEKCSFEEAREVFENTERTTEFWKQYVDGDQCESNPCLNGGSCKDDINSYECWCPFGFEGKNCELDVTCNIKNGRCEQFCKNSADNKVVCSCTEGYRLAENQKSCEPAVPFPCGRVSVSQTSKLTR
chain 2: VVGGEDAKPGQFPWQVVLNGKVDAFCGGSIVNEKWIVTAAHCVETGVNITVVAGEHNIEETEHTEQNRSVIRIIPHHNYNAAINKYNHDIALLELDEPLVLNSYVTPICIADKEYTNIFLKFGSGYVSGWGRVFHKGYSALVLQYLRVPLVDRATCLESTKFRIYNNMFCAGFHEGGRDSCQGDSGGPHVTEVEGTSFLTGIISWGEECAMKGKYGIYTKVSEYVNWIKNKTKLT
B2: FIXa-R318Y/R338E/T343R/R403E/E410S (protein)
chain 1: B1 chain 1
chain 2: B1 chain 2 with N48K, N67K, S69N, N230S
B3: FIXa-Y155F/I251S/R338E/T343R/R403E (protein)
chain 1: B1 chain 1
chain 2: B1 chain 2 with N48K, N67K, S69N, I71S, Y138R, N230E
B4: FIXa-Y155F/K247N/N249S/R338E/R403E (protein)
chain 1: B1 chain 1
chain 2: B1 chain 2 with N48K, Y138R, R163T, N230E
B5: FIXa-Y155F/K247N/N249S/R318Y/T343R/R403E (protein)
chain 1: B1 chain 1
chain 2: B1 chain 2 with N48K, E158R, N230E
B6: FIXa-K247N/N249S/R318Y/T343R/E410N (protein)
chain 1: B1 chain 1
chain 2: B1 chain 2 with N48K, E158R, E223R
B7: FIXa-Y155F/K247N/N249S/R318Y/E410N (protein)
chain 1: B1 chain 1
chain 2: B1 chain 2 with N48K, E158R, R163T, E223R
B8: FIXa-Y155F/K247N/N249S/R338E/E410N (protein)
chain 1: B1 chain 1
chain 2: B1 chain 2 with N48K, Y138R, R163T, E223R
B9: FIXa-Y155F/K247N/N249S/R338E/T343R/R403E (protein)
chain 1: B1 chain 1
chain 2: B1 chain 2 with N48K, Y138R, N230E
B10: FIXa-K247N/N249S/R318Y/T343R/R403E (protein)
chain 1: B1 chain 1
chain 2: B1 chain 2 with N48K, E158R, N230E
B11: FIXa-Y155F/R338E/T343R/R403E (protein)
chain 1: B1 chain 1
chain 2: B1 chain 2 with N48K, N67K, S69N, Y138R, N230E
B12: FIXa-Y155F/K247N/N249S/R318Y/R338E/T343R/R403E (protein)
chain 1: B1 chain 1
chain 2: B1 chain 2 with N48K, N230E
B13: FIXa-Y155F/K247N/N249S/R318Y/T343R/R403E/E410N (protein)
chain 1: B1 chain 1
chain 2: B1 chain 2 with N48K, E158R
B14: FIXa-K247N/N249S/R318Y/R338E/T343R/E410N (protein)
chain 1: B1 chain 1
chain 2: B1 chain 2 with N48K, E223R
B15: FIXa-Y155F/K247N/N249S/R338E/T343R/R403E/E410N (protein)
chain 1: B1 chain 1
chain 2: B1 chain 2 with N48K, Y138R
B16: FIXa-Y155F/K247N/N249S/R318Y/R338E (protein)
chain 1: B1 chain 1
chain 2: B1 chain 2 with N48K, R163T, E223R, N230E
B17: FIXa-K247N/N249S/R318Y/T343R/R403E/E410N (protein)
chain 1: B1 chain 1
chain 2: B1 chain 2 with N48K, E158R
B18: FIXa-Y155F/K247N/N249S/R338E/T343R (protein)
chain 1: B1 chain 1
chain 2: B1 chain 2 with N48K, Y138R, E223R, N230E
B19: FIXa-K247N/N249S/R318Y/R338E/T343R/R403E (protein)
chain 1: B1 chain 1
chain 2: B1 chain 2 with N48K, N230E
B20: FIXa-K247N/N249S/R338E/T343R/R403E/E410N (protein)
chain 1: B1 chain 1
chain 2: B1 chain 2 with N48K, Y138R
B21: FIXa-Y155F/K228N/K247N/N249S/R318Y/R338E/T343R/R403E/E410N (protein)
chain 1: B1 chain 1
chain 2: B1 chain 2
B22: FIXa-Y155F/R338E/T343R/R403E/E410S (protein)
chain 1: B1 chain 1
chain 2: B1 chain 2 with N48K, N67K, S69N, Y138R, N230S
B23: FIXa-Y155F/K247N/N249S/R318Y/T343R/E410N (protein)
chain 1: B1 chain 1
chain 2: B1 chain 2 with N48K, E158R, E223R
B24: FIXa-Y155F/K247N/N249S/R318Y/R338E/T343R/E410N (protein)
chain 1: B1 chain 1
chain 2: B1 chain 2 with N48K, E223R
B25: FIXa-Y155F/N260S/R338E/T343R/R403E (protein)
chain 1: B1 chain 1
chain 2: B1 chain 2 with N48K, N67K, S69N, N80S, Y138R, N230E
B26: FIXa-Y155F/K247N/N249S/R318Y/T343R (protein)
chain 1: B1 chain 1
chain 2: B1 chain 2 with N48K, E158R, E223R, N230E
B27: FIXa-Y155F/K247N/N249S/T343R/R403E (protein)
chain 1: B1 chain 1
chain 2: B1 chain 2 with N48K, Y138R, E158R, N230E
B28: FIXa-Y155F/K247N/N249S/R318Y/R403E (protein)
chain 1: B1 chain 1
chain 2: B1 chain 2 with N48K, E158R, R163T, N230E
B29: FIXa-R338E/T343R/R403E (protein)
chain 1: B1 chain 1
chain 2: B1 chain 2 with N48K, N67K, S69N, Y138R, N230E

Where a chain is given by its changes, count along the chain named. In names and notes the source's numbering stands.

The target in this data set is Factor X (FX), P00742.
Sequence of Factor X (FX), P00742 (P00742 whole entry, looked up): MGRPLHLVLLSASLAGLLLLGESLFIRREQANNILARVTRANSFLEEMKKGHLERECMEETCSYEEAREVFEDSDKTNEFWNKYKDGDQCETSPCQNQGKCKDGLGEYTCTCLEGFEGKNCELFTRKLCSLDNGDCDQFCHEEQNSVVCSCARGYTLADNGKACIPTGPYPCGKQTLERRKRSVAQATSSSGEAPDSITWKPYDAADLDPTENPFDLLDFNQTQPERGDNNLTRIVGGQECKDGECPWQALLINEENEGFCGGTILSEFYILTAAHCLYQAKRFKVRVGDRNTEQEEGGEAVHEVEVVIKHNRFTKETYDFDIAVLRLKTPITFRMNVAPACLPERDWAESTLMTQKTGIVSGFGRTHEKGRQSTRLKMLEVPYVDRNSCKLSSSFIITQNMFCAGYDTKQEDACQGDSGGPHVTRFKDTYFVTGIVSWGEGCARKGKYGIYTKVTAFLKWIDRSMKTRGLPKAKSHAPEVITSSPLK
As for B1, the catalytic constant (kcat) is 9.9 s⁻¹.
Consider B2, for which the kcat amounted to 7.6 s⁻¹.
For the protein B3, the kcat was 5.9 s⁻¹.
B4: the kcat is 5.3 s⁻¹ and the kcat/KM amounted to 1.4e+08 M⁻¹ s⁻¹.
For the protein B5, the kcat was determined as 7.5 s⁻¹ and the kcat/KM worked out at 1.3e+08 M⁻¹ s⁻¹.
Turning to B6, the kcat amounted to 6.1 s⁻¹ and the kcat/KM was 2e+08 M⁻¹ s⁻¹.
In the case of B7, the kcat amounted to 3.4 s⁻¹.
Regarding B8, the kcat was determined as 7.3 s⁻¹ and the kcat/KM was determined as 4.7e+08 M⁻¹ s⁻¹.
For the protein B9, the kcat stood at 14.6 s⁻¹ and the kcat/KM stood at 5.9e+08 M⁻¹ s⁻¹.
On to B10, for which the kcat was 3.7 s⁻¹ and the catalytic efficiency (kcat/KM) worked out at 3.9e+07 M⁻¹ s⁻¹.
Take B11: the kcat worked out at 5.2 s⁻¹.
With B12, the kcat turned out to be 10.6 s⁻¹.
Turning to B13, the catalytic constant (kcat) was determined as 9 s⁻¹ and the kcat/KM came to 1.6e+08 M⁻¹ s⁻¹.
As for B14, the kcat was found to be 8.8 s⁻¹ and the kcat/KM was determined as 3.2e+08 M⁻¹ s⁻¹.
Regarding B15, the kcat was 9.8 s⁻¹.
For B16, the kcat was 7.5 s⁻¹.
Turning to B17, the kcat turned out to be 9.5 s⁻¹ and the kcat/KM stood at 1.3e+08 M⁻¹ s⁻¹.
Take B18: the kcat worked out at 10.6 s⁻¹ and the kcat/KM was 7.3e+08 M⁻¹ s⁻¹.
As to B19, the kcat is 9.2 s⁻¹.
Same read-out and setting: the value for B20 was 10.8 s⁻¹; that for B21 was 9.4 s⁻¹.
As for B22, the kcat came to 6.8 s⁻¹.
As for B23, the kcat worked out at 8.1 s⁻¹ and the kcat/KM came to 3.1e+08 M⁻¹ s⁻¹.
B24: the kcat is 7.7 s⁻¹ and the kcat/KM stood at 5e+08 M⁻¹ s⁻¹.
As to B25, the catalytic constant (kcat) was 6.4 s⁻¹.
For B26, the catalytic constant (kcat) worked out at 10.3 s⁻¹.
On the same count and under the same terms, then B27, with 4.7 s⁻¹.
Turning to B28, the turnover number (kcat) was determined as 1.7 s⁻¹.
The same measure, in the same setting: then B29, with 6.9 s⁻¹.

The term kcat denotes the number of substrate molecules converted per active site and unit of time at saturation. Broadly, the kcat/KM is the second-order rate constant that governs catalysis at low substrate concentration.
